According to patent US20110318339A1 (FABRUS, published 2011):

Key:
[1] = target: T1, recombinant human DLL4 (Cat# 1506-D4/CF, R&D Systems) (human, UniProt Q9NR61 27-529); assay: ELISA, DLL4 coated, Fab 20 nM
T1 construct: Bought protein; also called hDLL4; rHuman DLL4
Protocol: (§1) The plate was blocked by adding 1% BSA in Tris-buffered Saline Tween (TBST) and incubating for 1 hour at room temperature followed by washing 2 times with 150 μl TBST. A Fab antibody was serially diluted in 1% BSA in PBS. A 50 μl aliquot of each serial dilution was added, in triplicate, to each well and the plate was incubated for 1 hour at room temperature followed by washing 2 times with TBST. 50 μl of either goat anti-human kappa HRP conjugated secondary antibody (Cat # A7164-1 mL, Sigma-Aldrich) or goat anti-human lambda HRP conjugated secondary antibody (Cat # L1645-1 ml, Sigma-Aldrich), diluted 1:1000 in 1% BSA in PBS, was added to each well and the plate was incubated for 30 minutes at room temperature followed by washing 3 times with 200 μl TBST. Finally, 50 μl TMB one-component reagent (Cat # TMBW-1000-01, BioFax) was added and allowed to develop for 2 minutes at room temperature. The reaction was immediately halted by the addition of 50 μl 0.5M H₂SO₄ and the absorbance at 450 nm was measured using an ELISA plate reader.

[2] = target: T1, recombinant human DLL4 (Cat# …); assay: ELISA, DLL4 coated, Fab 0.74 nM
Protocol: as §1

[3] = target: T1, recombinant human DLL4 (Cat# …); assay: ELISA, DLL4 coated, Fab 2.22 nM
Protocol: as §1

[4] = target: T1, recombinant human DLL4 (Cat# …); assay: ELISA, DLL4 coated, Fab 6.67 nM
Protocol: as §1

Binder	ELISA absorbance at 450 nm [1]	ELISA absorbance at 450 nm [2]	ELISA absorbance at 450 nm [3]	ELISA absorbance at 450 nm [4]
Fab VH1-46_IGHD6-6*01_IGHJ1*01 S102A/S103P/S104F/H111F I51A/N52L/S54T/G56H & L6_IGKJ1*01 S28N/S30D/S31H (Fab, V domains shown, Fab made in E. coli: VH on CH1 with His6 and Flag tags (Plasmid A), VL on kappa CL (Plasmid C); also called H: APFF ALTH & L: NDH) VH: QVQLVQSGAEVKKPGASVKVSCKASGYTFTSYYMHWVRQAPGQGLEWMGIALPTGHSTSYAQKFQGRVTMTRDTSTSTVYMELSSLRSEDTAVYYCAREEYAPFSAEYFQFWGQGTLVTVSS VL: EIVLTQSPATLSLSPGERATLSCRASQNVDHYLAWYQQKPGQAPRLLIYDASNRATGIPARFSGSGSGTDFTLTISSLEPEDFAVYYCQQRSNWPPWTFGQGTKVEIKR	0.391 A450	0.024 A450	0.069 A450	0.232 A450
Fab VH1-46_IGHD6-6*01_IGHJ1*01 S102A/S103P/S104F/H111F I51A/N52L/S54T/G56H & L6_IGKJ1*01 S28N/S30D/S31H S52L/A55G (Fab, V domains shown, Fab made in E. coli: VH on CH1 with His6 and Flag tags (Plasmid A), VL on kappa CL (Plasmid C); also called H: APFF ALTH & L: NDH LG) VH: QVQLVQSGAEVKKPGASVKVSCKASGYTFTSYYMHWVRQAPGQGLEWMGIALPTGHSTSYAQKFQGRVTMTRDTSTSTVYMELSSLRSEDTAVYYCAREEYAPFSAEYFQFWGQGTLVTVSS VL: EIVLTQSPATLSLSPGERATLSCRASQNVDHYLAWYQQKPGQAPRLLIYDALNRGTGIPARFSGSGSGTDFTLTISSLEPEDFAVYYCQQRSNWPPWTFGQGTKVEIKR	0.39 A450	0.028 A450	0.069 A450	0.212 A450
Fab VH1-46_IGHD6-6*01_IGHJ1*01 S102A/S103P/S104F/H111F I51V/N52L/S54T/G56H & L6_IGKJ1*01 S28N/S30D/S31H S52L/A55G (Fab, V domains shown, Fab made in E. coli: VH on CH1 with His6 and Flag tags (Plasmid A), VL on kappa CL (Plasmid C); also called H: APFF VLTH & L: NDH LG) VH: QVQLVQSGAEVKKPGASVKVSCKASGYTFTSYYMHWVRQAPGQGLEWMGIVLPTGHSTSYAQKFQGRVTMTRDTSTSTVYMELSSLRSEDTAVYYCAREEYAPFSAEYFQFWGQGTLVTVSS VL: EIVLTQSPATLSLSPGERATLSCRASQNVDHYLAWYQQKPGQAPRLLIYDALNRGTGIPARFSGSGSGTDFTLTISSLEPEDFAVYYCQQRSNWPPWTFGQGTKVEIKR	1.06 A450	0.397 A450	0.755 A450	0.916 A450
Fab VH1-46_IGHD6-6*01_IGHJ1*01 S102A/S103P/S104F/H111F I51A/N52L/S54T/G56H & L6_IGKJ1*01 S28N/S30D/S31H S52L/A55S (Fab, V domains shown, Fab made in E. coli: VH on CH1 with His6 and Flag tags (Plasmid A), VL on kappa CL (Plasmid C); also called H: APFF ALTH & L: NDH LS) VH: QVQLVQSGAEVKKPGASVKVSCKASGYTFTSYYMHWVRQAPGQGLEWMGIALPTGHSTSYAQKFQGRVTMTRDTSTSTVYMELSSLRSEDTAVYYCAREEYAPFSAEYFQFWGQGTLVTVSS VL: EIVLTQSPATLSLSPGERATLSCRASQNVDHYLAWYQQKPGQAPRLLIYDALNRSTGIPARFSGSGSGTDFTLTISSLEPEDFAVYYCQQRSNWPPWTFGQGTKVEIKR	0.458 A450	0.046 A450	0.04 A450	0.282 A450
Fab VH1-46_IGHD6-6*01_IGHJ1*01 S102A/S103P/S104F/H111F N52L/S54T/G56H & L6_IGKJ1*01 S28N/S30D/S31H S52L/A55G (Fab, V domains shown, Fab made in E. coli: VH on CH1 with His6 and Flag tags (Plasmid A), VL on kappa CL (Plasmid C); also called H: APFF LTH & L: NDH LG) VH: QVQLVQSGAEVKKPGASVKVSCKASGYTFTSYYMHWVRQAPGQGLEWMGIILPTGHSTSYAQKFQGRVTMTRDTSTSTVYMELSSLRSEDTAVYYCAREEYAPFSAEYFQFWGQGTLVTVSS VL: EIVLTQSPATLSLSPGERATLSCRASQNVDHYLAWYQQKPGQAPRLLIYDALNRGTGIPARFSGSGSGTDFTLTISSLEPEDFAVYYCQQRSNWPPWTFGQGTKVEIKR	1.01 A450	0.368 A450	0.594 A450	0.88 A450
Fab VH1-46_IGHD6-6*01_IGHJ1*01 S102A/S103P/S104F/H111F N52L/S54T/G56H & L6_IGKJ1*01 S28N/S30D/S31H (Fab, V domains shown, Fab made in E. coli: VH on CH1 with His6 and Flag tags (Plasmid A), VL on kappa CL (Plasmid C); also called H: APFF LTH & L: NDH) VH: QVQLVQSGAEVKKPGASVKVSCKASGYTFTSYYMHWVRQAPGQGLEWMGIILPTGHSTSYAQKFQGRVTMTRDTSTSTVYMELSSLRSEDTAVYYCAREEYAPFSAEYFQFWGQGTLVTVSS VL: EIVLTQSPATLSLSPGERATLSCRASQNVDHYLAWYQQKPGQAPRLLIYDASNRATGIPARFSGSGSGTDFTLTISSLEPEDFAVYYCQQRSNWPPWTFGQGTKVEIKR	0.863 A450	0.27 A450	0.463 A450	0.739 A450
